Experimental findings from paper PMC9365698, “A physical wiring diagram for the human immune system” (Nature, 2022) are described below.

Experiment in all cases: SAVEXIS (scalable arrayed multi-valent extracellular interaction screen); biotinylated bait (100 fmol per well) captured on streptavidin-coated 384-well plates; prey multimerised on streptavidin-HRP (25 fmol protein with 6.25 fmol SAV-HRP); 60 min at 20 °C in 2% BSA in HBS pH 7.4 (1 mM MgCl2, 2 mM CaCl2); desthiobiotin washes; TMB absorbance at 650 nm; both bait-prey orientations; primary and secondary screen
Holding throughout (conditions): both partners purified

One assay concerns the target T1, PVR (human, UniProt P15151 21-343, biotin on the biotin-acceptor site (enzymatic, co-transfected BirA)).
T1 construct: PVR (poliovirus receptor), human, full ectodomain
T1 sequence (looked up): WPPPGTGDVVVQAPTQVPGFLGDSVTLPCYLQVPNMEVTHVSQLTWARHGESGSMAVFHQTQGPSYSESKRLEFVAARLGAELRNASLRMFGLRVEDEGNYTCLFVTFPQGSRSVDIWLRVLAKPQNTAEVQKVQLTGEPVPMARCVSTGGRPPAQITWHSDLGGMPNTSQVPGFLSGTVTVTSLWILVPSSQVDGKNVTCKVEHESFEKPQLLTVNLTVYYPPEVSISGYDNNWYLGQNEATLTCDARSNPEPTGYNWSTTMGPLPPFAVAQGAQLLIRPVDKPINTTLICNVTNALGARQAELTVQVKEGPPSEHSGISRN

In a further assay the target is T2, JAG1 (human, UniProt P78504 34-1067, biotin on the biotin-acceptor site (enzymatic, co-transfected BirA)).
T2 construct: JAG1 (Jagged-1), human, full ectodomain; also called Jagged ligands

The target in assay [1] is T3, Plasmodium falciparum P41 protein (Plasmodium falciparum, UniProt Q8I1Y0 21-378).
T3 construct: P41 protein of Plasmodium falciparum; P41 was the bait in two control wells of every screening plate
T3 sequence: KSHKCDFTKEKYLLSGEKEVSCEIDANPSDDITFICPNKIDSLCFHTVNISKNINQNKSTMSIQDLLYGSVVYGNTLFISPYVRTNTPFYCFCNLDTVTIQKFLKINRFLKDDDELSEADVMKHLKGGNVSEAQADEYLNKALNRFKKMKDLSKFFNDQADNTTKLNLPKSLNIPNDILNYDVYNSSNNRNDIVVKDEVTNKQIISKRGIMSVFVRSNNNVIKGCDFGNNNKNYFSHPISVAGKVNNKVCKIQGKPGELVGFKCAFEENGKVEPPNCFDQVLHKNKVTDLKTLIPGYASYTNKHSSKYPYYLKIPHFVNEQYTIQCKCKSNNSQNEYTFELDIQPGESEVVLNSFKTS

B1: KIR2DL5A (receptor, human, UniProt Q8N109 22-238, looked up)
chain: HEGGQDKPLLSAWPSAVVPRGGHVTLLCRSRLGFTIFSLYKEDGVPVPELYNKIFWKSILMGPVTPAHAGTYRCRGSHPRSPIEWSAPSNPLVIVVTGLFGKPSLSAQPGPTVRTGENVTLSCSSRSSFDMYHLSREGRAHEPRLPAVPSVNGTFQADFPLGPATHGGTYTCFGSLHDSPYEWSDPSDPLLVSVTGNSSSSSSSPTEPSSKTGIRRH
modifications: biotin on the biotin-acceptor site (enzymatic, co-transfected BirA)
notes: KIR2DL5A, human, full ectodomain
Take B1: in the assay with PVR, the binding result was “binds”.

B2: VASN (receptor, human, UniProt Q6EMK4 24-575, looked up)
chain: CPSGCQCSQPQTVFCTARQGTTVPRDVPPDTVGLYVFENGITMLDAGSFAGLPGLQLLDLSQNQIASLPSGVFQPLANLSNLDLTANRLHEITNETFRGLRRLERLYLGKNRIRHIQPGAFDTLDRLLELKLQDNELRALPPLRLPRLLLLDLSHNSLLALEPGILDTANVEALRLAGLGLQQLDEGLFSRLRNLHDLDVSDNQLERVPPVIRGLRGLTRLRLAGNTRIAQLRPEDLAGLAALQELDVSNLSLQALPGDLSGLFPRLRLLAAARNPFNCVCPLSWFGPWVRESHVTLASPEETRCHFPPKNAGRLLLELDYADFGCPATTTTATVPTTRPVVREPTALSSSLAPTWLSPTEPATEAPSPPSTAPPTVGPVPQPQDCPPSTCLNGGTCHLGTRHHLACLCPEGFTGLYCESQMGQGTRPSPTPVTPRPPRSLTLGIEPVSPTSLRVGLQRYLQGSSVQLRSLRLTYRNLSGPDKRLVTLRLPASLAEYTVTQLRPNATYSVCVMPLGPGRVPEGEEACGEAHTPPAVHSNHAPVTQAREGNLP
modifications: biotin on the biotin-acceptor site (enzymatic, co-transfected BirA)
notes: VASN (vasorin), human, full ectodomain; also called vasorin
Regarding B2, in the assay with JAG1, the binding result is on record as “binds”.

B3: Plasmodium falciparum P12 (natural protein)
chain: HKNLTCDFNDVYKLEFHPNQQTSVTKLCNLTPNVLEKVTIKCGSDKLNYNLYPPTCFEEVYASRNMMHLKKIKEFVIGSSMFMRRSLTPNKINEVSFRIPPNMMPEKPIYCFCENKKTITINGSNGNPSSKKDIINRGIVEIIIPSLNEKVKGCDFTTSESTIFSKGYSINEISNKSSNNQQDIVCTVKAHANDLIGFKCPSNYSVEPHDCFVSAFNLSGKNENLENKLKLTNIIMDHYNNTFYSRLPSLISDNWKFFCVCSKDNEKKLVFTVEASISSSNTKLASRDNTYQDYISN
notes: P12 protein of Plasmodium falciparum; P12 was presented as a prey (multimerised on streptavidin-HRP) for the positive control
On to B3, for which the binding result in assay [1] is on record as “binds”.
